# Results as given in paper PMC9141661.
# Legend:
# [1] = target: Angiotensin-converting enzyme 2 (ACE2) ectodomain, Fc-tagged (human) (UniProt Q9BYF1); experiment: BLI
# [2] = target: Angiotensin-converting enzyme 2 (ACE2) ectodomain, Fc-tagged (human) (UniProt Q9BYF1); experiment: latex nanoparticle-enhanced turbidimetry
# Sequence of Angiotensin-converting enzyme 2 (ACE2) ectodomain, Fc-tagged (human) (Q9BYF1 18-740): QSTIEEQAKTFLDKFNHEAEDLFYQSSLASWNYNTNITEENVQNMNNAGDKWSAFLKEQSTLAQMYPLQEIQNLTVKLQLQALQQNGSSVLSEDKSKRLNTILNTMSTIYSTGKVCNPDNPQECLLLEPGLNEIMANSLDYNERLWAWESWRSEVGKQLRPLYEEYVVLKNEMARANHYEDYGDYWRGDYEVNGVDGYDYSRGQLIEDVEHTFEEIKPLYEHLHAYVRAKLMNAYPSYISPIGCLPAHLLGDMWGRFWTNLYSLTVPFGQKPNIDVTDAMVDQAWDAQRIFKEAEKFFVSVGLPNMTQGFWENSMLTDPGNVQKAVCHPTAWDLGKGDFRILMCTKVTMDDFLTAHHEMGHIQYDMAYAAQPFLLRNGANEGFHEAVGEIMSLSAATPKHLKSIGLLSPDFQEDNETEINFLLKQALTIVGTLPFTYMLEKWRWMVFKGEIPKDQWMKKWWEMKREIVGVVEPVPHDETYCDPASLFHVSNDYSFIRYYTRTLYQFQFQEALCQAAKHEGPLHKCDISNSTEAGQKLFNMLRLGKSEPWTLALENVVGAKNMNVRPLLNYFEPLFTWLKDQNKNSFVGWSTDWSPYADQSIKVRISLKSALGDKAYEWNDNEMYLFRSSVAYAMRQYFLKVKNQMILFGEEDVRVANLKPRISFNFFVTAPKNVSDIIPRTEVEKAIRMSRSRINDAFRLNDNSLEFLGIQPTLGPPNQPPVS
substance,measurement,setting,value
Human milk lactoferrin (natural protein),Kd,[1],27.6 µM
same,koff,[1],0.461 s⁻¹
same,kon,[1],16700 M⁻¹ s⁻¹
same,"apparent Kobs (inhibition of RBD-ACE2 complex formation, initial rates)",[2],6.3 µM
